Test results: patent US20100166775A1 (ACTIVE BIOTECH, published 2010)

B1: human S100A12 (other, UniProt P80511 2-92, looked up)
chain: TKLEEHLEGIVNIFHQYSVRKGHFDTLSKGELKQLLTKELANTIKNIKDKAVIDEIFQGLDANQDEQVDFQEFISLVAIALKAAHYHTHKE
notes: also called S100Al2
B2: hS100A11 (other, human, UniProt P31949 1-105, looked up)
S100A11: MAKISSPTETERCIESLIAVFQKYAGKDGYNYTLSKTEFLSFMNTELAAFTKNQKDPGVLDRMMKKLDTNSDGQLDFSEFLNLIGGLAMACHDSFLKAVPSQKRT
notes: recombinant; also called recombinant human S100A11 (ProSpec TechnoGene)
B3: anti-S100A9 monoclonal antibody 43/8 (antibody, V domains shown)
VH: PELVKSGASVKISCKASGYSFTDYNINWVKQSNGKSLEWIGLINPNYGTTFYNQKFKGKATLTVDQSSSTAYMQLNSLTSEDSAVYYCARETLLLRYFDYWGQGTTLTVSS
VL: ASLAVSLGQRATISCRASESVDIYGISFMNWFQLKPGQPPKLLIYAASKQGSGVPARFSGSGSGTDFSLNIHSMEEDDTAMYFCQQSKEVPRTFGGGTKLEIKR
notes: Mouse monoclonal from an S100A9-null C57BL/6 mouse; also called anti-S100A9 mAb 43/8; mAb 43/8
B4: human S100A8/S100A9 complex (other)
chain 1: MLTELEKALNSIIDVYHKYSLIKGNFHAVYRDDLKKLLETECPQYIRKKGADVWFKELDINTDGAVNFQEFLILVIKMGVAAHKKSHEESHKE
chain 2: MTCKMSQLERNIETIINTFHQYSVKLGHPDTLNQGEFKELVRKDLQNFLKKENKNEKVIEHIMEDLDTNADKQLSFEEFIMLMARLTWASHEKMHEGDEGPGHHHKPGLGEGTP
notes: Heterodimer; also called S100A8/A9; S100A8/9
B5: human S100A8 (other, UniProt P05109 1-93, looked up)
chain: B4 chain 1
notes: The source is 'produced recombinantly ... or obtained from elsewhere'
B6: recombinant human S100A9 (ligand)
chain: B4 chain 2
notes: Concentrations are based on the homodimeric molecular weight; Assays were run with Ca2+ and Zn2+; also called hS100A9; rhS100A9
B7: murine S100A8/S100A9 complex (other)
chain 1: PSELEKALSNLIDVYHNYSNIQGNHHALYKNDFKKMVTTECPQFVQNINIENLFRELDINSDNAINFEEFLAMVIKVGVASHKDSHKE
chain 2: ANKAPSQMERSITTIIDTFHQYSRKEGHPDTLSKKEFRQMVEAQLATFMKKEKRNEALINDIMEDLDTNQDNQLSFEECMMLMAKLIFACHEKLHENNPRGHGHSHGKGCGK
notes: Heterodimer; also called murine S100A8/A9; murine complex S100A8/A9
B8: murine S100A9 (other, UniProt P31725 2-113, looked up)
chain: B7 chain 2
notes: Concentration is based on the homodimeric molecular weight
B9: murine S100A8 (other, UniProt P27005 2-89, looked up)
chain: B7 chain 1
notes: as for B8
B10: S100A1 (other, human, UniProt P23297 1-94, looked up)
chain: MGSELETAMETLINVFHAHSGKEGDKYKLSKKELKELLQTELSGFLDAQKDVDAVDKVMKELDENGDGEVDFQEYVVLVAALTVACNNFFWENS
notes: also called recombinant human S100A1
B11: S100B (other, human, UniProt P04271 1-92, looked up)
chain: MSELEKAMVALIDVFHQYSGREGDKHKLKKSELKELINNELSHFLEEIKEQEVVDKVMETLDNDGDGECDFQEFMAFVAMVTTACHEFFEHE
notes: also called S100β; recombinant human S100β

What was measured:
[1] = biological target: T1, recombinant human RAGE/Fc chimera (R&D Systems cat. No. 1145-RG) (human, UniProt Q15109 23-344); experiment: SPR (Biacore), 200 nM protein over amine-coupled RAGE/Fc, 1 mM CaCl2 and 10 µM ZnCl2; Req or response at late association, not corrected for mass
T1 construct: Disulfide-linked homodimer expressed in NS0 cells, glycosylated and amine-coupled to a CM5 chip; also called rhRAGE-Fc; immobilized RAGE; not shown: peptide linker between RAGE and Fc; Fc region of human IgG1
Description: (§1) Binding analysis was performed using the “surface plasmon resonance” (SPR) technology with a Biacore 3000™ system. This technology allows analysis of an interaction between proteins and small molecules in a real-time and label-free manner. A protein or low-molecular weight compound is injected over a surface (a CM5 sensor chip) with a covalently coupled ligand and the signal produced, expressed as resonance units (RU), is directly proportional to the number and mass of the molecule interacting with the ligand on the surface. Immobilization, regeneration scouting, surface performance tests and binding studies were conducted basically according to the instructions by the manufacturer. Kinetic evaluation of binding data was carried using the BIAevaluation Software Version 3.2 (Biacore AB). Optimization of conditions for immobilization and binding analysis is carried out for each interaction to be studied.
(§2) Recombinant human RAGE was obtained from R&D Systems (cat. No. 1145-RG) as a fusion protein of the extracellular domain of RAGE, comprising a.a. 1-344, and the Fc region of human IgG₁ via a peptide linker. The chimeric protein was expressed in the mouse myleoma cell line NSO as a disulfide-linked homo-dimeric protein with a calculated molecular mass of 61 kDa. Prior to covalent coupling to the sensor chip, buffer was changed to a standard Biacore buffer (10 mM Hepes, 0.15 M NaCl, pH 7.4, containing 0.005% v/v Surfactant P20; HBS-P) using Fast Protein Desalting Micro-Spin Columns (Pierce). RAGE was diluted in an immobilization buffer shown to give sufficient pre-concentration and then covalently coupled using the “Aim at immobilization level” function in the Biacore Wizard to obtain various coupling densities. Activity of immobilized RAGE was tested by injecting a specific anti-human RAGE monoclonal antibody over the surface.

[2] = biological target: T1, recombinant human RAGE/Fc chimera (R&D …); experiment: SPR (Biacore), 200 nM protein over amine-coupled RAGE/Fc, 1 mM CaCl2 and 10 µM ZnCl2
Description: as §1, §2

recombinant human S100A9 [3] = biological target: B6; experiment: SPR competition: 100 nM S100A9 pre-incubated with 12.5-500 nM 43/8, injected over immobilized RAGE-Fc; log-logit plot
Description: (§3) Binding data were transformed to a log-logit plot for calculation of IC₅₀ value.
The assay was performed by coating human RAGE on a standard CM5 chip at high density (3000 RU) using standard amine coupling.

recombinant human S100A9 [4] = biological target: B6; experiment: SPR competition: 100 nM S100A9 pre-incubated with 12.5-500 nM 43/8, injected over immobilized TLR4/MD-2; log-logit plot
Description: as §3
The assay was performed by coating human TLR4/MD-2 complex on a CM5 chip at a density of ˜3000 RU using standard amine coupling.

recombinant human S100A9 [5] = biological target: B6; experiment: SPR competition: 100 nM human S100A9 pre-incubated with 0-400 nM 43/8 or 1C10, injected over immobilized 43/8; reference 1C10
Description: Incubated samples were then injected for 3 min at a flow rate of 30 μl/min (1; association phase) followed by injection of sample buffer (2; dissociation phase). Responses were calculated at late association phase.

recombinant human S100A9 [6] = biological target: B6; experiment: SPR competition: 100 nM S100A9 pre-incubated with 12.5-500 nM 43/8, injected over immobilized amino-linked Compound A (a small molecule); log-logit plot
Description: The assay was performed by coating amino-linked Compound A on a CM5 chip using standard amine coupling.

[7] = biological target: T1, recombinant human RAGE/Fc chimera (R&D …); experiment: placeholder

T1 sequence (Q15109 23-344, change not shown): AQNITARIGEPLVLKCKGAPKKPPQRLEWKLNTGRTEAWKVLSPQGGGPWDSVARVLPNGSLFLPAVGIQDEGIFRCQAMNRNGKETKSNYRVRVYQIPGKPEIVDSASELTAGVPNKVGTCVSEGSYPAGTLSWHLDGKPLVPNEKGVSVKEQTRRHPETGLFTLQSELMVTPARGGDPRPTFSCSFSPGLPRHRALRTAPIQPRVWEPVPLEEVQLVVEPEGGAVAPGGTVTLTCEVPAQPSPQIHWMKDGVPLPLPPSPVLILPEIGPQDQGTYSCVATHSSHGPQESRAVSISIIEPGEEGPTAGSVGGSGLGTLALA

Binder: B1
- binding result [1]: binds

Binder: B2
- binding result [2]: no binding (tested: 200 nM)

Binder: B3
- IC50 (recombinant human S100A9 [3]): 34 nM
- IC50 (recombinant human S100A9 [4]): 27 nM
- fold higher inhibition of S100A9 binding to immobilized 43/8 than for antibody 1C10 (recombinant human S100A9 [5]): > 10 fold
- IC50 (recombinant human S100A9 [6]): 120 nM

Binder: B4
- binding result [1]: binds

Binder: B5
- binding result [2]: no binding (tested: 200 nM)

Binder: B6
- fold higher binding than the next group of RAGE binders (AnxII, S100A12, S100A8/9) [7]: 10 fold

Binder: B7
- binding result [1]: binds

Binder: B8
- binding result [2]: no binding (tested: 200 nM)

Binder: B9
- binding result [2]: no binding (tested: 200 nM)

Binder: B10
- binding result [2]: no binding (tested: 200 nM)

Binder: B11
- binding result [2]: no binding (tested: 200 nM)
